In general, Vmax refers to the rate approached at saturating substrate. A word on the Km: it is the substrate concentration at which the rate is half of its maximum.

Series [1] has as its system R. flavipes worker gut esterases. As to the kind of experiment: Gut esterase activity toward naphthyl esters, native PAGE and colorimetric microplate assays. It is filed as biochemical, Reticulitermes flavipes. Conditions: foregut/salivary gland, midgut, hindgut. As to the method:
Dissections, protein preparation, centrifugation protocols, and protein assays: All manipulations were performed on ice. For tissue localization studies, 25 termite worker guts were removed and dissected into the three regions of foregut/salivary gland, midgut and hindgut. Each gut region preparation was homogenized using a Tenbroeck glass homogenizer in potassium phosphate (0.1M, pH 7.6), and then centrifuged for 15 min at 14,000×g and 4° C. The supernatant was saved for assays and the pellet discarded.
Gut esterase activity toward naphthyl esters with varying carbon chain lengths: Activities toward different naphthyl ester substrates were investigated in different regions of the termite gut using native PAGE, as above, the results being shown in FIGS. 4 and 5. […].
. Differences in activity between α-naphthyl butyrate and acetate were not as evident on native PAGE as in activity assays. Thus, the majority/greatest diversity of gut esterase activity in R. flavipes is located in the midgut, and that activity is greatest toward the 3-carbon ester naphthyl propionate. […]

Series [2] is described as follows: Glucose release from pine sawdust by recombinant enzymes and mixtures. Conditions: 2% w/v, 18 hrs, 37° C., pH 7. In kind it is biochemical. As to the method: All reactions were performed in 0.1 M sodium acetate buffer containing 10 mM calcium chloride (pH 7). The two feedstock substrates were pine sawdust (=lignin+cellulose+hemicellulose) and beechwood xylan (=lignin+hemicellulose). Feedstocks were tested at 2% w/v (10 mg in 0.5 mL buffer). Reactions were run for 18 hrs at 37° C. with shaking at 220 rpm in vented 1.5 mL plastic tubes.
Protein volumes used per assay were 10 μL of each of the Cell-1, β-glucosidase, and Laccase 6 recombinant protein preparations. These loading volumes provided 8.5, 7.9 and 2.0 μg of each protein, respectively, per reaction. The storage buffer for Cell-1 and β-glucosidase was 0.1 M sodium acetate, 0.15 M sodium chloride, and 0.5 M calcium chloride (pH 5.8). The storage buffer for Laccase 6 was 0.1M boric acid, phosphoric acid, and acetic acid (pH 7.0).
Reactions were stopped after 18 hours by the addition of 10 μL of 0.2 Methylene-diamine tetra-acetic acid and centrifuged for 5 min at 16,000×g. Glucose detection was performed in triplicate on 125 μL aliquots of each reaction supernatant. The entire experiment was replicated three times. Glucose release was measured using the Autokit Glucose reagent kit (Wako Chemical, Richmond, Va.) at a volume of 125 μL per determination. Glucose was quantified based on absorbance at 505 nm relative to glucose standard curves. Standard curves were prepared in eight serial dilutions downward from 0.6 mM in sodium acetate-calcium chloride reaction buffer.

Substrate in series [3]: COc1cc(/C=C/C(=O)O)cc(OC)c1O
As to the kind of experiment: purified protein, by the assay type. Conditions: other: RfLacA.

Substrate in series [4]: COc1cccc(OC)c1O
As to the kind of experiment: purified protein, by the assay type. Conditions: other: RfLacA; substrate concentration providing ½ maximal activity.

Substrate in series [5]: Oc1ccccc1O
As to the kind of experiment: purified protein, by the assay type. Conditions: other: RfLacA.

Substrate in series [6]: C[C@H]1O[C@@H](Oc2ccc([N+](=O)[O-])cc2)[C@H](O)[C@@H](O)[C@H]1O
As to the kind of experiment: Activity of recombinant RfBGluc-1 towards synthetic nitrophenol substrates, kinetic microplate assay. It is filed as biochemical, Reticulitermes flavipes. Conditions: other: synthetic NP substrates; read kinetically at 420 nm; mean ± standard error, 3-5 replicates; pH 6.0. As to the method: (§1) All initial characterization assays took place in 0.1 M sodium acetate buffer (pH 6) using 2 μL of recombinant enzyme preparation (=1.58 μg protein per assay) in a total reaction volume of 250 μL. Synthetic p-nitrophenol substrates (Table 1) were tested in direct kinetic assays using a microplate reader. Reactions were initiated by adding 248 μL assay buffer to 2 μL protein. Assays were read at 420 nm every 20 sec for 5 min to yield mean velocity data in mOD/min. Specific activity was determined with the p-nitrophenol extinction coefficient of 0.6605 mM^−1 cm^−1. All results were averaged from three independent replicates, each conducted in triplicate.

Substrate in series [7]: O=[N+]([O-])c1ccc(O[C@@H]2O[C@H](CO)[C@@H](O)[C@H](O)[C@H]2O)cc1
The series is described as above. It is filed as biochemical, Reticulitermes flavipes. Conditions: other: synthetic NP substrates; read kinetically at 420 nm; mean ± standard error, 3-5 replicates; pH 6.0. As to the method: as §1

Substrate in series [8]: O=[N+]([O-])c1ccc(O[C@@H]2O[C@H](CO)[C@@H](O[C@@H]3O[C@H](CO)[C@@H](O)[C@H](O)[C@H]3O)[C@H](O)[C@H]2O)cc1
The series is described as above. It is filed as biochemical, Reticulitermes flavipes. Conditions: other: synthetic NP substrates; read kinetically at 420 nm; mean ± standard error, 3-5 replicates; pH 6.0. As to the method:
as §1

Substrate in series [9]: O=[N+]([O-])c1ccc(O[C@@H]2O[C@H](CO)[C@@H](O[C@@H]3O[C@H](CO)[C@@H](O[C@@H]4O[C@H](CO)[C@@H](O)[C@H](O)[C@H]4O)[C@H](O)[C@H]3O)[C@H](O)[C@H]2O)cc1
The series is described as above. It is filed as biochemical, Reticulitermes flavipes. Conditions: other: synthetic NP substrates; read kinetically at 420 nm; mean ± standard error, 3-5 replicates; pH 6.0. As to the method: as §1

Substrate in series [10]: O=[N+]([O-])c1ccc(O[C@@H]2O[C@H](CO)[C@@H](O[C@@H]3O[C@H](CO)[C@@H](O[C@@H]4O[C@H](CO)[C@@H](O[C@@H]5O[C@H](CO)[C@@H](O)[C@H](O)[C@H]5O)[C@H](O)[C@H]4O)[C@H](O)[C@H]3O)[C@H](O)[C@H]2O)cc1
Described as above. It is filed as biochemical, Reticulitermes flavipes. Conditions: other: synthetic NP substrates; read kinetically at 420 nm; mean ± standard error, 3-5 replicates; pH 6.0. As to the method:
as §1

Substrate in series [11]: O=[N+]([O-])c1ccccc1O[C@@H]1OC[C@@H](O)[C@H](O)[C@H]1O
The series is described as above. In kind it is biochemical, Reticulitermes flavipes. Conditions: other: synthetic NP substrates; read kinetically at 420 nm; mean ± standard error, 3-5 replicates; pH 6.0. As to the method:
as §1

Substrate in series [12]: O=[N+]([O-])c1ccccc1O[C@@H]1O[C@H](CO)[C@@H](O)[C@H](O)[C@H]1O
The series is described as above. It is filed as biochemical, Reticulitermes flavipes. Conditions: other: synthetic NP substrates; read kinetically at 420 nm; mean ± standard error, 3-5 replicates; pH 6.0. As to the method: as §1

Substrate in series [13]: OC[C@H]1O[C@@H](O[C@H]2[C@H](O)[C@@H](CO)OC(O)[C@@H]2O)[C@H](O)[C@@H](O)[C@@H]1O
Nature of the series: Activity of recombinant RfBGluc-1 towards natural substrates, endpoint glucose detection assay. It is filed as biochemical, Reticulitermes flavipes. Conditions: other: natural substrates; endpoint at 505 nm, glucose detection reagent; mean ± standard error.
Protocol: (§2) Natural carbohydrate substrates (Table 2) were tested in endpoint assays in which color development was enabled using 439-90901 glucose-mutarose detection reagent (Wako Chemical; Richmond, Va.). Assays were conducted in 125 μL for 5 min at room temperature as described above and stopped with the addition of 125 μL glucose detection reagent. After 1 min, the absorbance was read at 505 nm.

Substrate in series [14]: OCc1ccccc1O[C@@H]1O[C@H](CO)[C@@H](O)[C@H](O)[C@H]1O
The series is described as above. It is filed as biochemical, Reticulitermes flavipes. Conditions: other: natural substrates; endpoint at 505 nm, glucose detection reagent; mean ± standard error.
Protocol: as §2

A short description of series [15]: Recombinant Cell-3 exoglucanase activity in unpurified form. In kind it is biochemical. Conditions: for activity toward pNPC relative to uninfected control larvae: homogenates of infected larvae. An excerpt:
Recombinant Cell-3 characterization: The recombinant Cell-3 protein (nucleotide sequence SEQ ID NO.: 3; amino acid sequence SEQ ID NO.: 4) was investigated in unpurified form. […] Other experiments investigating activity in crude homogenates over time and after repeated freeze-thaw cycles further verified reduced Cell-3 stability.

The mark [16] stands for this setting: substrate concentration providing ½ maximal activity.

With `CCCCCCCC(=O)Oc1cccc2ccccc12` [α-naphthyl caprylate], the “gut esterase activity toward the substrate” value in series [1] is on record as “lowest esterase staining activity”.
In the case of `CCC(=O)Oc1cccc2ccccc12` [α-naphthyl propionate], the “gut esterase activity toward the substrate” value in [1] was “significantly greatest activity”.

B1: β-glucosidase: recombinant R. flavipes β-glucosidase, amino acid sequence SEQ ID NO.: 6 (protein)
chain: MRLQTVCFVIFVTAVFGADVDNETLFTFPEDFKLGAATASYQIEGGWNADGKGVNIWDKLTHERSQLVVDKSSGDVADDSYHLYKEDVKLLKNMGAQLYRFSISWARILPEGHDNKVNQAGIEYYNKLIDELLDNGIEPMVTMYHWDLPQTLQDLGGWPNRELAKYSENYARVLFQNFGDRVKLWLTFNEPLTFMDAYASETGMAPSIDTPGIGDYLAAHTVILAHANIYRMYEREFKEEQKGKVGIALNIHWCEPVTNSTKDVEACERYQQFNLGIYAHPIFSVEGDYPSVLKARVDANSVTEGYTTSRLPKFTTEEVDFIRGTHDFLGLNFYTAVTGADGVEGEPPSRYRDMGAITSQDPDWPQSASSWLRVVPWGFRKELNWIANEYGNPPIYITENGFSDYGGLNDTDRVLYYTEHLKEMLKANHIDEVNVVGYTTWRPVDNFEWLRGYTERFGIHEVNFNDPSRPRVPKESAKVLTEIFNTRRIPERFLD
modifications: Reticulitermes flavipes; amino acid sequence beta-glucosidase “contig 771”
As to B1, the “glucose release from pine sawdust (in words)” value in series [2] was “No glucose release was detectable”.

B2: RfLacA (Reticulitermes flavipes) (protein)
chain: TSVLLNSYLQPNDDIDRNTYLLNAKSNNCARICNGTEAPKICYYQWTIENYVTLSEACDNCPLNVTACYNAQCITADGYERSILSVNRKLPGPSIEVCLRDRVIVDITNNMAGRTTSIHWHGVFQKGSQYMDGVPMVTQCTIHEGDTFRYDFIANNEGTHFWHSHDGLQKLDGVTGNLVVRVPKNFDPNGQLYDFDLPEHKIFISDWLHLSADDHFPGLRATNPGQDANSFLINGRGRTLIGTQSTNTPYAQINVQWGRRYRLRIVGSLCTVCPTQLTIDGHKITVIATDGNSVAPARVDSLIIYSGERYDVVLEATNTEGSYWIHLKGLATCVGSRVYQLGVLQYENTTTNKLHALTPDPGYDGFPQPASYRVLNPENASCSIGSTGLCVTQLANSDPVPRDILTQLPDINYLLQFGFETFDSRSFFKAYDRYFVSPFLELLSSTVNNISFVSPPSPLLSQRGDVPDDILCPTGADGLPQCPGGNSYCTCVHVIKIKLGALVQIILSDQSPKSDLNHPFHIHGHAFYVLGMGQYAAGQTAQDLLNSLKSNVSSVSPAPVLKDTVAVPSGGYAIIKFRPKNPGYWFLHCHFLYHVATGMSVVLQVGETSDYPPTPDGFPKCGSFTPPVNTN
With B2, the maximal velocity (Vmax) was 0.247 µM/min in series [3], 0.26 µM/min in series [4] and 15.4 µM/min in series [5]. Moreover, the results for the Km in [3] (setting [16]), in [4] and in series [5] (setting [16]) were 5022 µM, 34888 µM and 17527 µM, respectively.

B3: recombinant RfBGluc-1 β-glucosidase (Reticulitermes flavipes) (protein)
chain: ADVDNETLFTFPEDFKLGAATASYQIEGGWNADGKGVNIWDTLTHERSQLVVDKSSGDVADDSYHLYKEDVKLLKNMGAQLYRFSISWARILPEGHDNKVNQAGIEYYNKLIDELLDNGIEPMVTMYHWDLPQTLQDLGGWPNRELAKYSENYARVLFQNFGDRVKLWLTFNEPLTFMDAYASETGMAPSIDTPGIGDYLAAHTVILAHANIYRMYEREFKEEQKGKVGIALNIHWCEPVTNSTKDVEACERYQQFNLGIYAHPIFSVEGDYPSVLKARVDANSVTEGYTTSRLPKFTTEEVDFIRGTHDFLGLNFYTAVTGADGVEGEPPSRYRDMGAITSQDPDWPESASSWLRVVPWGFRKELNWIANEYGNPPIYITENGFSDYGGLNDTDRVLYYTEHLKEMLKAIHIDEVNVVGYTAWSLVDNFEWLRGYTERFGIHEVNFNDPSRPRVPKESAKVLTEIFNTRRIPERFLD
Regarding B3, the Km in series [6] worked out at 900 ± 70 µM; in [7], 1660 ± 70 µM; in [8], 1560 ± 40 µM; in series [9], 1630 ± 500 µM; in series [10], 590 ± 10 µM; in series [11] it was 7570 ± 1170 µM. In addition, the Km in [12] came to 1580 ± 190 µM; in series [13], 630 ± 20 µM; in series [14] it was 34300 ± 14750 µM. Besides, the Vmax in series [6] came out at 12.6 µmol/min/mg; in series [7] it was 22.9 µmol/min/mg; in [8], 13.8 µmol/min/mg; in series [9], 22.6 µmol/min/mg; in [10], 16.6 µmol/min/mg; in [11], 8.77 µmol/min/mg. Besides, the Vmax in [12] worked out at 4.2 µmol/min/mg; in [13], 218 µmol/min/mg; in series [14] it was 278 µmol/min/mg.

B4: Cell-3: recombinant exoglucanase, amino acid sequence SEQ ID NO.: 4, investigated in unpurified form (protein)
chain: MVLCILLQWMQIGGKQKYPAFKPGAKYGRGYCDGQCPHDMKVSSGRANVDGWKPQDNDENSGNGKLGTCCWEMDIWEGNLVSQAYTVHAGSKSGQYECTGTQCGDTDSGERFKGTCDKDGCDFASYRWGATDYYGPGKTVDTKQPMTVVTQFIGDPLTEIKRVYVQGGKVINNSKTSNLGSVYDSLTEAFCDDTKQVTGDTNDFKAKGGMSGFSKNLDTPQVLVMSLWDDHTANMLWLDSTYPTDSTKPGAARGTCAVTSGDPKDVESKQANSQVVYSDIKFGPINSTYKAN
modifications: Reticulitermes flavipes; amino acid sequence exoglucanase (Cell-3)
With B4, the “activity toward pNPC relative to uninfected control larvae” value is on record as “significantly higher activity” in [15] and “higher exoglucanase (cellulase) activity than do uninfected homogenates” in series [15] (listed as recombinant Cell-3). The “stability of recombinant protein” value in [15] (pNPC activity in filtrates, over time and after freeze-thaw cycles) was “reduced stability”.

(Values after patent US8445240B2, “Termite enzymes and uses thereof for in vitro conversion of lignin-containing materials to fermentable products” (University of Florida Research Foundation, Inc., priority 2009, dated 2013).)
